Experiment: L-[14C]arginine to L-[14C]citrulline conversion, transfected HEK293, low glucose
Details: glycan lost; control: WT-eNOS

B1: endothelial nitric oxide synthase (eNOS): T866A (protein)
parent chain: MGNLKSVAQEPGPPCGLGLGLGLGLCGKQGPATPAPEPSRAPASLLPPAPEHSPPSSPLTQPPEGPKFPRVKNWEVGSITYDTLSAQAQQDGPCTPRRCLGSLVFPRKLQGRPSPGPPAPEQLLSQARDFINQYYSSIKRSGSQAHEQRLQEVEAEVAATGTYQLRESELVFGAKQAWRNAPRCVGRIQWGKLQVFDARDCRSAQEMFTYICNHIKYATNRGNLRSAITVFPQRCPGRGDFRIWNSQLVRYAGYRQQDGSVRGDPANVEITELCIQHGWTPGNGRFDVLPLLLQAPDDPPELFLLPPELVLEVPLEHPTLEWFAALGLRWYALPAVSNMLLEIGGLEFPAAPFSGWYMSTEIGTRNLCDPHRYNILEDVAVCMDLDTRTTSSLWKDKAAVEINVAVLHSYQLAKVTIVDHHAATASFMKHLENEQKARGGCPADWAWIVPPISGSLTPVFHQEMVNYFLSPAFRYQPDPWKGSAAKGTGITRKKTFKEVANAVKISASLMGTVMAKRVKATILYGSETGRAQSYAQQLGRLFRKAFDPRVLCMDEYDVVSLEHETLVLVVTSTFGNGDPPENGESFAAALMEMSGPYNSSPRPEQHKSYKIRFNSISCSDPLVSSWRRKRKESSNTDSAGALGTLRFCVFGLGSRAYPHFCAFARAVDTRLEELGGERLLQLGQGDELCGQEEAFRGWAQAAFQAACETFCVGEDAKAAARDIFSPKRSWKRQRYRLSAQAEGLQLLPGLIHVHRRKMFQATIRSVENLQSSKSTRATILVRLDTGGQEGLQYQPGDHIGVCPPNRPGLVEALLSRVEDPPAPTEPVAVEQLEKGSPGGPPPGWVRDPRLPPCTLRQALTFFLDITSPPSPQLLRLLSTLAEEPREQQELEALSQDPRRYEEWKWFRCPTLLEVLEQFPSVALPAPLLLTQLPLLQPRYYSVSSAPSTHPGEIHLTVAVLAYRTQDGLGPLHYGVCSTWLSQLKPGDPVPCFIRGAPSFRLPPDPSLPCILVGPGTGIAPFRGFWQERLHDIESKGLQPTPMTLVFGCRCSQLDHLYRDEVQNAQQRGVFGRVLTAFSREPDNPKTYVQDILRTELAAEVHRVLCLERGHMFVCGDVTMATNVLQTVQRILATEGDMELDEAGDVIGVLRDQQRYHEDIFGLTLRTQEVTSRIRTQSFSLQERQLRGAVPWAFDPPGSDTNSP
enzymatic_activity, fold_change: decreases, compared with T866A-eNOS, the activity of WT-eNOS was increased 8 to 10 folds

Source: publication PMC7652922
